Article PMC4890538

B1: Cy(HWSAN-click), fluorescein tagged (peptide)
peptide: HWSAN
modifications: not fully specified
B2: Cy(HWSAN-click), biotin tagged (peptide)
peptide: HWSAN
modifications: not fully specified

How the values were obtained:
[1] = target: recombinant Glutathione-S-Transferase (GST) tagged PfLDH (Plasmodium falciparum lactate dehydrogenase) (Plasmodium falciparum); assay: fluorescence polarisation
[2] = target: recombinant Glutathione-S-Transferase (GST) tagged PfLDH (Plasmodium falciparum lactate dehydrogenase) (Plasmodium falciparum)

Chain of recombinant Glutathione-S-Transferase (GST) tagged PfLDH (Plasmodium falciparum lactate dehydrogenase) (Plasmodium falciparum) (Q27743 whole entry): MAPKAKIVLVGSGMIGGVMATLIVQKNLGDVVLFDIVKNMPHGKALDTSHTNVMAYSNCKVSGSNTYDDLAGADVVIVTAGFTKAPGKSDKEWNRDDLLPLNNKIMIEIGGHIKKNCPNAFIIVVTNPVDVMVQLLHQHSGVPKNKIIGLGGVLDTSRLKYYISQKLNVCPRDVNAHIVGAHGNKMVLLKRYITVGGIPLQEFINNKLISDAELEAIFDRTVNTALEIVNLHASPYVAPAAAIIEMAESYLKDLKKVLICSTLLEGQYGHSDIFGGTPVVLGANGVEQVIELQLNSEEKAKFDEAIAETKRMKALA

Binder | Kd [1] | EC50 [2]
B1 | 40.6 nM | –
B2 | – | 23.4 nM
